Results as given in patent US20210346432A1.

What was measured:
ET140-p25 (human) = target: T1, ET140-p25 (human); test: peptide ELISA on streptavidin plate, antibody 1 ug/mL
T1 sequence (peptide, N-terminal biotin): SGSGLRCSSNTPPLTCQRY

ET140-p26 (human) = target: T2, ET140-p26 (human); test: as above
T2 sequence (peptide, N-terminal biotin): SGSGRCSSNTPPLTCQRYC

For 901mIgG (antibody), which A450 (ET140-p25 (human)) is on record?
The A450 was 0.492.

What about the A450 (ET140-p26 (human)) of the same substance?
The A450 was 0.162.
